Values of other authors as cited in publication PMC8035261.

Assays:
[1] = target: SV2 (UniProt Q9Z2I6)
[2] = target: FGFR3 (Homo sapiens) (UniProt P22607)
UniProt P22607, sequence (P22607 23-806): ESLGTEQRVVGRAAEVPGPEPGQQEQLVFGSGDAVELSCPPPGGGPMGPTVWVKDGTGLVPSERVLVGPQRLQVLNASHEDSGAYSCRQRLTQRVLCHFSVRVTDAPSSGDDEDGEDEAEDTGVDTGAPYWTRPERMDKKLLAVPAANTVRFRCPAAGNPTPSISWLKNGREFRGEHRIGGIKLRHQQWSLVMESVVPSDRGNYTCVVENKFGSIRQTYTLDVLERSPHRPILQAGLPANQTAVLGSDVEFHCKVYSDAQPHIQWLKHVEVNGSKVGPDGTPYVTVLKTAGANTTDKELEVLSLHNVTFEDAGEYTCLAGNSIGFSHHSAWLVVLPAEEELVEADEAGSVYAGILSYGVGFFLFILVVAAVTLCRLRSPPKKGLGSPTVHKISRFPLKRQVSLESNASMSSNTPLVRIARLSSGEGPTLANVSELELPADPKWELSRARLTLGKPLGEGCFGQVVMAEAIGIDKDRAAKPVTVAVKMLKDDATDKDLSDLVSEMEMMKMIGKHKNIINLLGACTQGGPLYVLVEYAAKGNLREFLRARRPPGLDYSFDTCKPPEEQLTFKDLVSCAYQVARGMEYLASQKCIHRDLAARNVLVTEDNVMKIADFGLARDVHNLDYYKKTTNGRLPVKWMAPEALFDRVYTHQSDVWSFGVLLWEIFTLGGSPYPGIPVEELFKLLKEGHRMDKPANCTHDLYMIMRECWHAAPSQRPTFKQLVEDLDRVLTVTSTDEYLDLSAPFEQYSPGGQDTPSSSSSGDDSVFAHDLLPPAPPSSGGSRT

UniProt Q9Z2I6, sequence (Q9Z2I6 whole entry): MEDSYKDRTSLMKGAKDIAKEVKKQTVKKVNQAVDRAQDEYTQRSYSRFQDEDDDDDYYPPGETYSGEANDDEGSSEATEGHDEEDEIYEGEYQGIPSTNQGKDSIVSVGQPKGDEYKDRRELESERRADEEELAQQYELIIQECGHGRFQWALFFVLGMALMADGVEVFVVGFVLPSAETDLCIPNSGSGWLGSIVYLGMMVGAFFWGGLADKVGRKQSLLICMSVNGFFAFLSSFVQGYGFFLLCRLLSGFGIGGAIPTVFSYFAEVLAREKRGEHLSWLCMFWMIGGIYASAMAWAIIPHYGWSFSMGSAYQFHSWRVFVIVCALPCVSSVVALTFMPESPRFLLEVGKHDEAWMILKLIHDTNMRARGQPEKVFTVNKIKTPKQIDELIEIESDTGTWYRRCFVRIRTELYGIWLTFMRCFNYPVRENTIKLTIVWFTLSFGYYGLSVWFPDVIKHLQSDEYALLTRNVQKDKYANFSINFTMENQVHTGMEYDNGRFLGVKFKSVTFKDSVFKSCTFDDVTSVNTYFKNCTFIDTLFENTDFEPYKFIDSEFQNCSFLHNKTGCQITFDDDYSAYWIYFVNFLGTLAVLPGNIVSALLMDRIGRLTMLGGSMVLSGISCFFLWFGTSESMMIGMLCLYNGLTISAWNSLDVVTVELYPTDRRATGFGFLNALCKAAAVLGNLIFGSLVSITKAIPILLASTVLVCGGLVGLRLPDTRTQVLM

## BoNT/A (from UniProt P0DPI1)
[1]
  Kd: 100 nM
[2]
  Kd: 15 nM
